The text below walks through data of publication PMC4293345.

Where two headings read alike, the source gives them in different places.

Assay [1] has as its target MBP-tagged NCS-1 (neuronal calcium sensor-1) (UniProt P62166). Briefly: pull-down.
The target is the same in assay [2]. Kind of assay: pull-down. The source holds these as a separate data set.

MBP-tagged NCS-1 (neuronal calcium sensor-1), sequence (P62166 whole entry): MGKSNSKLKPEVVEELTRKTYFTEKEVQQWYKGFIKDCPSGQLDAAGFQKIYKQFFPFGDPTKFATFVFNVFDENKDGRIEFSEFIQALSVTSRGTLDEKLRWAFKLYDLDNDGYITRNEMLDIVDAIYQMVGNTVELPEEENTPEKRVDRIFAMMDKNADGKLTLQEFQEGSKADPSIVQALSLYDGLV

With “GST-tagged IM-AA mutant IQ domain of CaV2.1 (from UniProt P54282 1848-1964) (domain or fragment)”, the relative binding (ratio of IMAA-GST to NCS-1-MBP) is 0.29 in assay [1] and 0.24 in assay [2].
